Assay results reported in doi:10.1101/2022.05.27.493400.
Values joined by “and” are separate entries in the source; they are usually repeats but may differ in a detail not shown here. Identical values can stand only once.

Experiments:
[1] = biological target: pineapple-derived jacalin-related lectin AcmJRL (pineapple (Ananas comosus)); assay: dynamic light scattering
[2] = biological target: human angiotensin-converting-enzyme-2 (ACE2) receptor, recombinant (human) (UniProt Q9BYF1); assay: SPR
[3] = biological target: SARS-CoV-2 spike receptor-binding domain (RBD) (SARS-CoV-2) (UniProt P0DTC2); assay: SPR

Q: For “pineapple-derived jacalin-related lectin AcmJRL (natural protein)”, which stoichiometry N [1] is on record?
A: The stoichiometry N was 2.

Q: And the Kd [2]?
A: The Kd was 22.1 µM.

Q: And the kon [2]?
A: Its kon is 590 M⁻¹ s⁻¹.

Q: What about the Kd [3] of the same substance?
A: Its Kd is 12.9 µM and 35 µM.

Q: What about the kon [3] of the same substance?
A: The kon was 1490 M⁻¹ s⁻¹.
